# B1: ASB9–EloBC ternary complex (ankyrin-repeat and SOCS-box protein 9, Elongin B, Elongin C) (complex)
# chain 1: SDWSPMHEAAIHGHQLSLRNLISQGWAVNIITADHVSPLHEACLGGHLSCVKILLKHGAQVNGVTADWHTPLFNACVSGSWDCVNLLLQHGASVQPESDLASPIHEAARRGHVECVNSLIAYGGNIDHKISHLGTPLYLACENQQRACVKKLLESGADVNQGKGQDSPLHAVARTASEELACLLMDFGADTQAKNAEGKRPVELVPPESPLAQLFLEREGPPSLMQLCRLRIRKCFGIQQHHKITKLVLPEDLKQFLLHL
# chain 2: MDVFLMIRRHKTTIFTDAKESSTVFELKRIVEGILKRPPDEQRLYKDDQLLDDGKTLGECGFTSQTARPQAPATVGLAFRADDTFEALCIEPFSSPPELPDVMKPQDSGSSANEQAVQ
# chain 3: MYVKLISSDGHEFIVKREHALTSGTIKAMLSGPGQFAENETNEVNFREIPSHVLSKVCMYFTYKVRYTNSSTEIPEFPIAPEIALELLMAANFLDC
# Legend:
# [1] = molecular target: ASB9–EloBC ternary complex (ankyrin-repeat and SOCS-box protein 9, Elongin B, Elongin C) (human) (UniProt Q96DX5); assay: native MS; nanoESI–MS of the reconstituted ASB9–EloBC–Cul5NTD sample at three concentrations; 500 mM ammonium acetate, pH 7.0
# [2] = molecular target: ASB9–EloBC ternary complex (ankyrin-repeat and SOCS-box protein 9, Elongin B, Elongin C) (human) (UniProt Q96DX5); assay: ITC; 288 K; Cul5NTD (450 μM) titrated into ASB9–EloBC (60 μM) in the cell; 50 mM HEPES, 100 mM NaCl, pH 7.5, 1 mM TCEP; one-set-of-sites model
# [3] = molecular target: ASB9–EloBC ternary complex (ankyrin-repeat and SOCS-box protein 9, Elongin B, Elongin C) (human) (UniProt Q96DX5); assay: ITC; 303 K; Cul5NTD (450 μM) titrated into ASB9–EloBC (60 μM) in the cell; 50 mM HEPES, 100 mM NaCl, pH 7.5, 1 mM TCEP; one-set-of-sites model
# [4] = molecular target: ASB9–EloBC ternary complex (ankyrin-repeat and SOCS-box protein 9, Elongin B, Elongin C) (human) (UniProt Q96DX5); assay: ITC; 298 K; Cullin NTD (450 μM) titrated into ASB9–EloBC (60 μM) in the cell; 50 mM HEPES, 100 mM NaCl, pH 7.5, 1 mM TCEP; one-set-of-sites model
# [5] = molecular target: ASB9–EloBC ternary complex (ankyrin-repeat and SOCS-box protein 9, Elongin B, Elongin C) (human) (UniProt Q96DX5); assay: differential scanning fluorimetry; 2 μM ASB9–EloBC with Cul5NTD at 8, 4, 2, 1, 0.5 and 0.25 μM; Sypro Orange; 50 mM HEPES, 100 mM NaCl, pH 7.5, 1 mM TCEP; 37 to 95 °C at 1 °C/min
# [6] = molecular target: T1, Cullin 5 N-terminal domain (residues 1–386, V341R, L345D) (human, UniProt Q93034 1-386, V341R | L345D); assay: ITC; 288 K
# [7] = molecular target: T1, Cullin 5 N-terminal domain (residues …); assay: ITC; 293 K
# [8] = molecular target: T1, Cullin 5 N-terminal domain (residues …); assay: ITC; 303 K
molecule,measurement,setting,value
"Cullin 5 N-terminal domain (residues 1–386, V341R, L345D) (from UniProt Q93034 1-386) (domain or fragment)",stoichiometry N,[1],1
same,dH,[2],-3 kcal/mol
same,dH,[3],-8.3 kcal/mol
same,Kd,[4],220 nM
same,dH,[4],-6 kcal/mol
same,stoichiometry N,[4],1
same,ΔTm,[5],4.6 °C
B1,Kd,[6],282 nM
same,Kd,[7],119 nM
same,Kd,[8],61 nM
